From article PMC9802656 (2022) come the findings set out here.

Test [1] addresses SARS-CoV-2 WT S protein expressed on HEK293T cells (SARS-CoV-2, UniProt P0DTC2). The experiment in a line: FACS.
In test [2] the target is SARS-CoV-2 S protein (entire S ectodomain) as used with m31A7 (SARS-CoV-2, UniProt P0DTC2 14-1213). As to the kind of experiment: ELISA.
A further test addresses SARS-CoV-2 S protein S1 (SARS-CoV-2). As to the kind of experiment: ELISA. A general note: ELISA stands for enzyme-linked immunosorbent assay.

B1: monoclonal antibody m31A7 (IgG) (antibody, V domains shown)
VH: EVQLQQSGPEMVKPGASVKISCKTSGYTFTEYTIYWVKQSHGKSLEWLGGINPNIGDTTYNQKFKGKATLTVDTSSSTAYMELRSLTSEDSAVYYCAREVYNYSFAYWGQGTLVTVSA
VL: DIVMSQSPSSLAVSVGEKVTMSCKSSQSLLYSSNQKNYLAWYQQKLGQTPKLLIYWASSRESGVPDRFTGSGSGTDFTLTISSVRAEDLAVYYCQQYYRYPLTFGVGTKLELK
As a reminder, the EC50 is the concentration at which the effect is half-maximal. A lower EC50 goes with an effect from little substance. For the molecule B1, the EC50 in test [1] stood at 0.0685 nM; in test [2], 0.0312 nM; with SARS-CoV-2 S protein S1, 0.0235 nM.
